Source: US20240254224A1 (UCB, published 2024)

How the values were obtained:
Test in all cases: SPR (Biacore T200), TREM1 ECD over antibody captured by anti-human Fc
[1] = biological target: T1, marmoset TREM1 ECD (in house, His tagged) (marmoset, UniProt A0A8I3WDM5 21-206)
T1 construct: extracellular domain
T1 sequence: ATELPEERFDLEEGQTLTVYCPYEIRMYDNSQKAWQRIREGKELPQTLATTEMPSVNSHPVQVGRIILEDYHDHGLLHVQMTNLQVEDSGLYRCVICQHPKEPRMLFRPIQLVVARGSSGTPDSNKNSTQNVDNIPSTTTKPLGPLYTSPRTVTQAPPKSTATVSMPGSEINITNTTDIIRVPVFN
Description: (§1) The species tested were human, cynomolgus, rhesus, marmoset, rat, mouse, dog and pig.
(§2) TREM1 ECD analyte (in house, His tagged) was injected at 3-fold serial dilutions in HBS-EP+ running buffer (GE Healthcare), top concentrations are shown in Table 15, and three-fold serial dilutions were performed to a bottom concentration of 2 nM. Buffer blank injections were included to subtract instrument noise and drift.

[2] = biological target: T2, pig TREM1 ECD (in house, His tagged) (pig, UniProt Q6TYI6 21-210)
T2 construct: extracellular domain
T2 sequence (looked up): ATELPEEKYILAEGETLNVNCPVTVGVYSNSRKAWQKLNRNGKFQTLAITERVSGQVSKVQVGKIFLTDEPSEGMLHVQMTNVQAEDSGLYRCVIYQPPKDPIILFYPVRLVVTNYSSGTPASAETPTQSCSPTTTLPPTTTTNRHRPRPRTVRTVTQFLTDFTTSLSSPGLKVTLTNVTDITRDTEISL
Description: as §1, §2

[3] = biological target: T3, mouse TREM1 ECD (in house, His tagged) (mouse, UniProt Q9JKE2 21-202)
T3 construct: extracellular domain
T3 sequence (looked up): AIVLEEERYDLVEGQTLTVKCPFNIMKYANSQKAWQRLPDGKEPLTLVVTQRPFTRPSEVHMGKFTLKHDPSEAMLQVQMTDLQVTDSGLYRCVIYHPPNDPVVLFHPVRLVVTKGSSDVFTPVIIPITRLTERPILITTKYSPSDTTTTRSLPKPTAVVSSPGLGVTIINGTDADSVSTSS
Description: as §1, §2

B1: 12172 gL2gH11 hIgG4P (antibody)
heavy: not shown
light: DIQLTQSPSFLSASVGDRVTITCQASQNIGSDLAWYQQKPGKAPKLLIYKAATLASGVPSRFSGSGSGTEFTLTISSLQPEDFATYYCQQYYYGSAGADTDTFGGGTKVEIKRTVAAPSVFIFPPSDEQLKSGTASVVCLLNNFYPREAKVQWKVDNALQSGNSQESVTEQDSKDSTYSLSSTLTLSKADYEKHKVYACEVTHQGLSSPVTKSFNRGEC
notes: Humanised IgG4P, human kappa; also called 12172gL2gH11 IgG4P
B1: no binding (tested: 510 nM) [1]; no binding (tested: 490 nM) [2]; no binding (tested: 520 nM) [3].
